According to patent publication CN111423507A (CAS CENTER FOR EXCELLENCE IN MOLECULAR CELL SCIENCE, dated 2020):

Legend:
[1] = biological target: A/HongKong/01/1968(H3N2)HA蛋白 (Influenza A virus …, UniProt Q91MA7 17-530); assay: ELISA, native HA coated at 1 ug/ml, antibody 5 ug/ml
[2] = biological target: 全长1968HongKong H3N2 HA (义翘神州 Cat:VG40116-NH, N端His标签, 293T表达) (Influenza A virus …, UniProt Q91MA7 17-566); assay: Western blot of full-length HA expressed in 293T cells
Chain of 全长1968HongKong H3N2 HA (义翘神州 Cat:VG40116-NH, N端His标签, 293T表达) (Q91MA7 17-566 limits assumed): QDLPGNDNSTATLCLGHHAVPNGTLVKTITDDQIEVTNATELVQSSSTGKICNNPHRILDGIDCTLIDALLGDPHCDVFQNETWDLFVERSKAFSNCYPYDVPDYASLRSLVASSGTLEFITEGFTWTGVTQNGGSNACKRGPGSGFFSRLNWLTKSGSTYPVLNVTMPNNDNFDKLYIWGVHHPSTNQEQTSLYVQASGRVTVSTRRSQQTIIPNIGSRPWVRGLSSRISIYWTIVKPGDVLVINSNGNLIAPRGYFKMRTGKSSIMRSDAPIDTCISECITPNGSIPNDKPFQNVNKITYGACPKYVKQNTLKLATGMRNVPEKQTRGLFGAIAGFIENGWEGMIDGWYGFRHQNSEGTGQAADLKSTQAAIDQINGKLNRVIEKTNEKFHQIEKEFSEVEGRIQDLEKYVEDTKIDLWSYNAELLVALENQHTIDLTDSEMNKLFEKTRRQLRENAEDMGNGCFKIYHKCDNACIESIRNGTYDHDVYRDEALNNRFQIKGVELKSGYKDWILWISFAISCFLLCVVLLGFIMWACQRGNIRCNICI

Chain of A/HongKong/01/1968(H3N2)HA蛋白 (Q91MA7 17-530 limits assumed): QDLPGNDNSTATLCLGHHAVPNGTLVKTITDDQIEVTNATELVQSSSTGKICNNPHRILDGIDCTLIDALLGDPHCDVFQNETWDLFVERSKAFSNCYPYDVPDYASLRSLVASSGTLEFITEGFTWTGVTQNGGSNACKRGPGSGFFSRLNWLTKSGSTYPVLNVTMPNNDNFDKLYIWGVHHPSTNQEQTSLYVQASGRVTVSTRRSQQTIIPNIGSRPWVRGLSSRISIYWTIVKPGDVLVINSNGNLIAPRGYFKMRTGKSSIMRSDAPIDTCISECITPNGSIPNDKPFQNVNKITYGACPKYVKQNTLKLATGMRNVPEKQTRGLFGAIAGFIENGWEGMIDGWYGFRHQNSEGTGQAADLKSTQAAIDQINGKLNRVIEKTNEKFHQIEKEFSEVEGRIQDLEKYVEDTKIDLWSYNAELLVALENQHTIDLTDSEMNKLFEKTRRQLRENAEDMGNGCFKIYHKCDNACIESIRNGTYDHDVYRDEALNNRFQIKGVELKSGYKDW

B1: 12mAb (antibody, V domains shown)
VH: EVQLVESGGGLVQPGGSLRLSCAASGFTFSTYNMNWVRQAPGKGLEWLSYISTSSNTIYYADSVKGRFTISRDNAKNSLFLQMNSLRDEDTAVYYCARDRGCSSTNCYVVGYYFYGMDVWGQGTTVTVSS
VL: DIQMTQSPSSVSASVGDRVTITCRASQGISSYLAWYQLKPGRAPKLLIYGATRLQSGVPSRFSGSGSGTDFTLTISGLQPEDFATYHCQQADSFPLTFGQGTRLEIK
- binding result [1]: binds
- binding result [2]: binds
